The series in a line: soluble on expression in E. coli; label from the status in PepcDB or PDB records.
Consider “MSLVDIHSHIIPGIDDGSNSLETTLNMMSIAKEAGVTKMVATSHYYRGKFENSISVIEKKANELNYTLKEKGVDIDVIPGQEVFIDNYTLKDYKEGIIGTINNTDYMLVEFDMMSLGENAIDTLYELQIKGIKPIIAHPERYTYIQKDIYKINELMDENIYFQVNAGSIEGLFGKTVQKTALKLVEEGVISFIASDAHSAGKRCPGYEKALHDLTKIDKTLAEKFIKNSNLLLENEKIENKVRKLKKKKTFFSFLKEGHHHHHH”, for which the “soluble on expression in E. coli” value is given as “soluble”. In the case of “MAYKKVLLAVNVYENADIVINSAVDFAKKNNTQVLKVVTVIDCVAPFAPSIVDFQHSIEQEAKEALDKLVTKISGIKVEHEVLVGNPAAEIVEYAEESNCDVIVLGSHATHGINLLLGSVANTVLHKAKCDVLTVRVNDDENADSKAHSYKRLLVPTDLENDSYVVVDKAKDIAKLYSAKIDTAFVIPNDSISLMTYETDKVETTLDKFAEKNGITGEKSVMIGGISNSLLEKAAENKNDLIVVGSHRRGAIGRFFLGSTANSILHQANVDVLVVRLK” it was “soluble”; in that of “MAHHHHHHMMEHLNIEKEAVTYASLIAALHNPQYVLPGHTAKELEAHLPGGVSSQQHTNVGEGGGTVTEGQASGPTSNSVDLSGTKTSYEAYRQERIEAGMAWFAACHSAHRTADVFNELLYLLRAKSHWCQFNTVLVQLRGNAVVTETEWPERLSEAGEGVPPSASAAGGASPGSVTILAPRWSTWPNGKTYELLIQRARYVHQWEVMWALYEEMIATGVHGTARVYEVLLLEARSHPPQAVLAAERSGNSDGASSFLLRLYEELRRNGSDVHSFTGTVNVVNAWTRARSRSNRWQS”, “not soluble”; in that of “QPSPPQRPNRCTVCRKRVGLTGFMCRCGTTFCGSHRYPEVHGCTFDFKSAG”, “soluble”. “MGSDKIHHHHHHMSSQNALYMLIDERLRRDELKLPGLPETAEQVRNAAMDPDCNLHDLCHIIQQDTALTARLIRLANSAYLGGRNKAESLMQALTRIGMRRIRTLALAMAMEQVFKPDNDIVQMFSQQFIVESREIAAAAVVITEDLQHRGIGHRLHQDVALLAGMVSRIGVAPILHMANEFEDSFANPSFIKECITQFSSTLGSNILSYWQFTPNLVQVPLCYYNGRMTLNDAITVNYCDIVHLAGLLTGNVKPNKDSVTLVEYQMLGVIKTDDFWQQESVQKSYRQMLDLLS”: the “soluble on expression in E. coli” value is “not soluble”. In the case of “MIGKNIKSLRKTHDLTQLEFARIVGISRNSLSRYENGTSSVSTELIDIICQKFNVSYVDIVGEDKMLNPVEDYELTLKIEIVKERGANLLSRLYRYQDSQGISIDDESNPWILMSDDLSDLIHTNIYLVETFDEIERYSGYLDGIERMLEISEKRMVA” it was “soluble”; in that of “MIAAEAFAPHAALAQDLIPHAADTGDGSHDLAHIHRVFRNAMRIHAGEGGDGNVLAASVLLHDCVAVEKNSPLRAQASRLAAEKASGILAGLGWQKQDIDAAAHAITTHSFSANIEPQTLEAKILQDADRLDAIGMVGAARCFYIAGRMGSALYDPADPLAKERPLDDRAFAIDHFETKLFKLADGFRTETGRQMAKARHERLKQVLDLFLDEILEHHHHHH”, “soluble”. In the case of “GGDFREYRDLMDTQVVLGFEGRPYHARDFYAAQILSIILGGGMSSRLFQEVREKRGLCYSIYAFHWGFSDIGLFGLHAATGQEKLKELLPVILDELSKVSKNIHTNELQRARAQYRATLTMAQENPSSQANFIARQILLYGREIPLSETIERLELITPARLTDLAGRLFINATPTLAAVGPVGSLMNFDNLTSTL” it was “not soluble”. For the sequence “MFCTLAGYRWLNSGSLLRRLSQRAVRRLPTAPLCHLHNGATESAASNGALRIVDEKVAYRRYATVFERTVQYPDGRHVTYDILGQPAVQSASVLVFPFDTQSKTCYVIREYCPGPNRVLYGFPAGMVETKHESLEAAARAELSEEAHLRCAQLIDLTAQAAVWERSFEVPNTASDAENCLRGFFADKYSRNVCKMYLALNPEPDGHPGSMDAEELIEQVGAVRVPQLEAWLWSGQMTMPHMLLAMCALTYLRQRGMLT”, the “soluble on expression in E. coli” value is given as “not soluble”. In the case of “MGSDKIHHHHHHMKLHQGERVSFVKTIPSLQETEFSRLEERLCFAKHAHPTYSIGIMPLGLSLCQGEGETYFMGRHKVCVYHPGEEHTCVFEHTGGSWAYWNCYPKEEMLREYASEILGERGEPHFAKTVVEDPYAYRLFWELFDLVGKERELLALQEASLKAFSYLIAHHASPWHPSSRFLLMERAKITQAKERILEGDEVEKITLEELASLCGMSRFRFLRLFAKLEGMTPHRFLLMHKTQKAKRYLQEGCDISEAALLSGFCDQAHLSRTLRRFYGYTPRSLRS” it was “not soluble”; in that of “MSESFAQLFEESLKVLETRQGSIVSGTVVAIQKGFVLVDAGLKSESAIPVAEFLNAQGELEIQVGDTVNVALDAVEDGFGETKLSREKAVRHESWIELEKAYEEKATVIGLIGKVKGGFTVELNGVRAFLPGSLVDTRPAREADHLLGKELEFKVIKLDQKRNNVVVSRRAVIESENSQEREQVLENLVEGSEVKGVVKNLTEYGAFVDLGGVDGLLHITDMAWKRVKHPSEIVNVGDEVTVKVLKFDKDRTRVSLGLKQLGQDPWAAIAENHPVNSKLTGKVTNLTDYGCFVEILDGVEGLVHVSEMDWTNKNIHPSKVVSLGDTVEVMVLEIDEERRRISLGLKQCKANPWTQFADTHNKGDKVTGKIKSITDFGIFIGLEGGIDGLVHLSDISWSISGEEAVRQYKKGDEVSAVVLAVDAVKERISLGIKQLEEDPFNNFVAINKKGAVVSATVVEADAKGAKVELAGGVEGYIRSADLTSEVAVGDVVEAKYTGVDRKSRIVHLSVKAKDQAEEAAAVASVNNKQEDIVIPNAMAEAFKAAKGELEHHHHHH”, “not soluble”; in that of “RCGAGEPWGNATNLGVPCLHWDEVPPFLERSPPASWAELRGQPHNFCRSPDGAGRPWCFYRNAQGKVDWGYCDCGQG”, “soluble”.

On to “MSLEALLSEDVKIIASALKAAIDKDRKSTSKREAETGIRYYNHENDIMNNRIFYVDDEGVLREDKYASNVRIPHGFFPEIVDQKTQYLLSNPVEYETENEELKEYLAEYYNSEFQVVLQELVEGSSQKGFEYVYARTNAEDRLCFQVADSLNVFGVYNEYNELQRICRHYITEIEKDGETVDIHHAEVWTDQNVYFFVAEDNKDYELDEAEPINPRPHVLAVDSDNESLLQRSYGQIPFYRLSNNKQETTDLKSIKALIDDYDLMNCFLSNNLQDFAEAIYVVSGFQGDDLSKLRQNVKSKKVVGTGSDGGLDVKTVTIPTEGRKTKMEIDKENIYKFGMAFDSTQVGDGNITNIVIKARYTLLNMKANKTEARLRALLEWMNKLVIDDINRRYTKAFDPTEVSFTFTREVMVNETDIVNNEKTEAETRKIILESILQVAPRLDDDNVLRLICEQFDLDWEDVKEALEEAEYTQGLTDNTDEEETAVTPNVPTQQMAEGATGSTESQLPGEGHHHHHH”, for which the “soluble on expression in E. coli” value was “not soluble”. To “MNHKVHHHHHHIEGRHMAVVKEVLEIAEKIKNMEIRGAGKIARSAAYALQLQAEKSKATNVDEFWKEMKQAAKILFETRPTAVSLPNALRYVMHRGKIAYSSGADLEQLRFVIINAAKEFIHNSEKALERIGEFGAKRIEDGDVIMTHCHSKAAISVMKTAWEQGKDIKVIVTETRPKWQGKITAKELASYGIPVIYVVDSAARHYMKMTDKVVMGADSITVNGAVINKIGTALIALTAKEHRVWTMIAAETYKFHPETMLGQLVEIEMRDPTEVIPEDELKTWPKNIEVWNPAFDVTPPEYVDVIITERGIIPPYAAIDILREEFGWALKYTEPWED” belongs “soluble”. In the case of “MAHHHHHHMARRPSRCYRFCKNKPYPKSRFCRGVPDPKIRNFDIGRRRATVDEFPVCIHVVSRELEQIASEALEAARIQANKYMVKRANKDVFHMRTRAHPFHVLRINKMLSCAGADRLQTGMRGAFGKPNGVCARVRIGQILLSMRTKEAYVPQAFEALRRAKMKFPGRQIIVMSKYWGFTNILRTEYEALRDAGKLEQRGTHCKLIAPKGKITMRNVMA” it was “not soluble”; in that of “MAHHHHHHMRTPVVGAGVAPLEPAPLEASSAAGEDGGEAGVGDEGTDRERFSKMWMYCLQQMQGHEVGMLMDMMPPDIQELYSDKLSDEYLLDEHDNMDKGVHALRAAQKMVEELTSEQLFHIEEFLAGTDAFNAEANRCHGKAHHPRGDGDNLEEEEEAGGDDDEDLFMHRDEGMGSDEEEWLLEQMIAAGDKTSAAAK”, “not soluble”; in that of “MSLDSKLIFFDIDGTIYDHDKNIPESTRKTVAELQRQGHHVFIASGRSPFLVKPILEELGIHSFISYNGQFVVFENQVIYKNPLPENAIRRLLKQADEGKHPVVFMAEDTMKATVADHPHVLEGIGSLKTDYPETDDLFYEGKEIFQLLLFCQDEEEKAYAAFPEFDLVRWHELSTDVLPHGGSKAEGIKKVIERLPFDIGDTYAFGDGLNDLQMIEYVGTGVAMGNAVPELKEIADFVTKPVDEDGIAYAVKELGLLKEGHHHHHH”, “soluble”. For the sequence “MAEDFSVVVLASDLGIDARPFLTRSDDVDEQENWHDCPQYLGDEDFSDLDLLQFFTLQGLDRSGNRIFRIVGKYFPARVVSAERLKKYISQKISNQCPEGPLCLVYMHSTVQKDDNSPGITILRWIYEDLPSDIKDRLQLVYFIHPGLRSRLVIATLGRLLLSGGLYWKIKYVSRLQYLWEDIKKGEVEIPDFVKNHDNVLEHRPLTDYGIEPDPFQLSEVQSSSFSLNRYENRWVS”, the “soluble on expression in E. coli” value is reported as “soluble”. In the case of “MGSDKIHHHHHHMATMMMNDMAARGLRVGLLTWDPEDATAHYPMDPAITWMKLAMGEASQRAGWGLRLRRQRAIRRLARGFRPDVVIGFQAGAFIALRTALVGLGIPMIAAERNAPDLYDFLRQGVRARRMTELALATASRITVQLPSYRPRYPAFLRRRIVDIPNPVPALAEPPYPNEAADPPRLILNMGRLSYQKNQAFLLRAFARVAPTHPEWTLAFVGDGDAGATLKALCHELDLDDRVLFPGATRDVGAWYARSAFLAFPSLWEGFPNALVEAFAHGLPAVGLRTTSGVNELIVEGETGLLSAPDEGAFAEALARMIRDDEARREMGRKAARSILAYDPKAIFDRWEALFRAVAKRRSAP” it was “not soluble”; in that of “PVNQKSKRSELSQRRIRRPFSVAEVEALVEAVEHLGTGRWRDVKMRAFDNADHRTYVDLKDKWKTLVHTASIAPQQRRGEPVPQDLLDRVLAAHAYWSQQQGKQHVEPLKILDAKAQKVGA”, “soluble”; in that of “PKLVCLVSSSNSFATFLAEEIPIISNKGIGVKGIKLKAEEKVRFAMPLQD”, “not soluble”. In the case of “MKTKNEPKVILELAKESDLPEFQKKLQEAFAIAVIETFGDCEDGPIPSDNDVQESFNAPGAVVYHILQDGKNVGGAVVRINSQTNHNSLDLFYVSPEYHSQGIGLSAWKAIEAQYPDTVLWETVTPYFEKRNINFYVNKCGFHIVEFYNEHHSNPHMHRNGREDDKPLLNDDDFFRFVKIMKKKD” it was “not soluble”; in that of “MVLFDVKKYETPDAKDVDMEQTKHNVSVFLSAYLAARCRVGQPREPKVTASFSLVPPSTAKNTFEAEQMLIQKEEAQEEFDYLHKLFVRGYSAIQHPHKPDVTERRKRIFYDRYINGNPIYLAAQRNCISEESVKQESNMIIVQFASALELVAFK”, “not soluble”. In the case of “MAFNDCFSLNYPGNPCPGDLIEVFRPGYQHWALYLGDGYVINIAPVDGIPASFTSAKSVFSSKALVKMQLLKDVVGNDTYRINNKYDETYPPLPVEEIIKRSEFVIGQEVAYNLLVNNCEHFVTLLRYGEGVSEQANRAISTVEFVTAAVGVFSFLGLFPKGQRAKYYLEHHHHHH” it was “soluble”. With “MLLCDTNIWLALALSGHVHHRASRAWLDTINAPGVIHFCRATQQSLLRLLTNRTVLGAYGSPPLTNREAWAAYAAFLDDDRIVLAGAEPDGLEAQWRAFAVRQSPAPKVWMDAYLAAFALTGGFELVTTDTAFTQYGGIELRLLAK”, the “soluble on expression in E. coli” value is recorded as “not soluble”.

(Values after the DeepSol protein solubility set.)
